Measurements: patent publication US20250243277A1 (AVACTA LIFE SCIENCES, published 2025)
Substitutions are numbered along the chain they refer to.

B1: Clone 54 (designed binder)
chain: MIPGGLSEAKPATPEIQEIVDKVKPQLEEKTGETYGKLEAVQYKTQVVINQQQIKHSGTNYYIKVRAGDNKYMHLKVFKSLWQHIPPDFWEDLVLTGYQVDKNKDDELTGF
notes: type III Affimer monomer; His-tagged
B2: Clone 111 (designed binder)
chain: MIPGGLSEAKPATPEIQEIVDKVKPQLEEKTGETYGKLEAVQYKTQVDIQDRLGGFIGTNYYIKVRAGDNKYMHLKVFKSLHFYRGILYREDLVLTGYQVDKNKDDELTGF
notes: His-tagged
B3: Clone 80 R49A (designed binder)
chain: MIPGGLSEAKPATPEIQEIVDKVKPQLEEKTGETYGKLEAVQYKTQVVARKHFPQWPGTNYYIKVRAGDNKYMHLKVFKSLDLQPREVFQEDLVLTGYQVDKNKDDELTGF
notes: alanine mutant of Clone 80 made in E. coli
B4: Clone 92 (designed binder)
chain: MIPGGLSEAKPATPEIQEIVDKVKPQLEEKTGETYGKLEAVQYKTQVDIDDDLWSGTNYYIKVRAGDNKYMHLKVFKSLILWPTKPEREDLVLTGYQVDKNKDDELTGF
notes: His-tagged
B5: Clone 94 (designed binder)
chain: MIPGGLSEAKPATPEIQEIVDKVKPQLEEKTGETYGKLEAVQYKTQVDKVYLVWAWTGTNYYIKVRAGDNKYMHLKVFKSLFQKGSNKPEEDLVLTGYQVDKNKDDELTGF
notes: His-tagged
B6: Clone 97 (designed binder)
chain: MIPGGLSEAKPATPEIQEIVDKVKPQLEEKTGETYGKLEAVQYKTQVDELDDAVKYWGTNYYIKVRAGDNKYMHLKVFKSLWWKTISADFEDLVLTGYQVDKNKDDELTGF
notes: His-tagged
B7: Clone 91 (designed binder)
chain: MIPGGLSEAKPATPEIQEIVDKVKPQLEEKTGETYGKLEAVQYKTQVVNQEHFRRFIGTNYYIKVRAGDNKYMHLKVFKSLNPWLHPQDFEDLVLTGYQVDKNKDDELTGF
notes: His-tagged
B8: Clone 99 (designed binder)
chain: MIPGGLSEAKPATPEIQEIVDKVKPQLEEKTGETYGKLEAVQYKTQVDTWGERLHYPGTNYYIKVRAGDNKYMHLKVFKSLWHKPKDNIIEDLVLTGYQVDKNKDDELTGF
notes: His-tagged
B9: Clone 98 (designed binder)
chain: MIPGGLSEAKPATPEIQEIVDKVKPQLEEKTGETYGKLEAVQYKTQVDWAIWRDKKVGTNYYIKVRAGDNKYMHLKVFKSLPIFEIVREGEDLVLTGYQVDKNKDDELTGF
notes: His-tagged
B10: Clone 93 (designed binder)
chain: MIPGGLSEAKPATPEIQEIVDKVKPQLEEKTGETYGKLEAVQYKTQVDQWGVDLVYTGTNYYIKVRAGDNKYMHLKVFKSLIVKRAVILWEDLVLTGYQVDKNKDDELTGF
notes: His-tagged
B11: Clone 256 (designed binder)
chain: MIPRGLSEAKPATPEIQEIVDKVKPQLEEKTNETYGKLEAVQYKTQVLAKEHGPDSWWSTNYYIKVRAGDNKYMHLKVFNGPQEKNQWVEEADRVLTGYQVDKNKDDELTGF
notes: type I Affimer monomer
B12: Clone 255 (designed binder)
chain: MIPRGLSEAKPATPEIQEIVDKVKPQLEEKTNETYGKLEAVQYKTQVLAREGRQDWVLSTNYYIKVRAGDNKYMHLKVFNGPWVPFPHQQLADRVLTGYQVDKNKDDELTGF
notes: type I Affimer monomer
B13: Clone 80 D82A (designed binder)
chain: B3 chain with A49R, D82A
notes: as for B3
B14: Clone 80 F89A (designed binder)
chain: B3 chain with A49R, F89A
notes: as for B3
B15: Clone 80 W56A (designed binder)
chain: B3 chain with A49R, W56A
notes: as for B3
B16: Clone 80 Q84A (designed binder)
chain: B3 chain with A49R, Q84A
notes: as for B3
B17: Clone 80 P57A (designed binder)
chain: B3 chain with A49R, P57A
notes: as for B3
B18: Clone 80 H52A (designed binder)
chain: B3 chain with A49R, H52A
notes: as for B3
B19: Clone 80 P54A (designed binder)
chain: B3 chain with A49R, P54A
notes: as for B3
B20: Clone 80 Q55A (designed binder)
chain: B3 chain with A49R, Q55A
notes: as for B3
B21: Clone 80 L83A (designed binder)
chain: B3 chain with A49R, L83A
notes: as for B3
B22: Clone 80 F53A (designed binder)
chain: B3 chain with A49R, F53A
notes: as for B3
B23: Clone 80 R50A (designed binder)
chain: B3 chain with A49R, R50A
notes: as for B3
B24: Clone 80 P85A (designed binder)
chain: B3 chain with A49R, P85A
notes: as for B3
B25: Clone 58 (designed binder)
chain: MIPGGLSEAKPATPEIQEIVDKVKPQLEEKTGETYGKLEAVQYKTQVVKQLIIWHWTGTNYYIKVRAGDNKYMHLKVFKSLFKNSNSHLEEDLVLTGYQVDKNKDDELTGF
notes: His-tagged
B26: Clone 52 (designed binder)
chain: MIPGGLSEAKPATPEIQEIVDKVKPQLEEKTGETYGKLEAVQYKTQVVGIREDWNWSGTNYYIKVRAGDNKYMHLKVFKSLFEPKKLEPAEDLVLTGYQVDKNKDDELTGF
notes: His-tagged

What follows are molecules tested against T1, human PD-L1-Fc (R&D Systems) (human, UniProt Q9NZQ7 19-239) (assay: SPR (Biacore T200): human PD-L1-Fc amine-coupled on a CM5 chip, Affimer monomer titrated as analyte, 1:1 Langmuir fit).
T1 construct: Bought from R&D Systems; Biotinylated in-house for the phage selection; also called huPD-L1-Fc; human PD-L1-Fc antigen; not shown: Fc part of the bought fusion
T1 sequence (Q9NZQ7 19-239 limits assumed): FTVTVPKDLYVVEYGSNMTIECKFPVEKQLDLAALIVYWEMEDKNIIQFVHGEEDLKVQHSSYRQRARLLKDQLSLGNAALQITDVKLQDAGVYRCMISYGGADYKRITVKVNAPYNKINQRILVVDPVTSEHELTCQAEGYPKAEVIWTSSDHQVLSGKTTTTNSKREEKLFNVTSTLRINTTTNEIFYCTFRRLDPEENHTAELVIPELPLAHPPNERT
Description: BIACORE™ T200 binding kinetic analysis was performed on monomer AFFIMER® clones with running buffer HBS-EP+ (Cytiva) and a series S sensor CM5 chip immobilized with human PD-L1-Fc (R&D Systems) in 10 mM Sodium acetate pH4.0 μsing amine coupling reagents (Cytiva). A concentration titration of AFFIMER® monomer was run as analyte with an association time of 150 seconds, followed by a dissociation time of 300 seconds at a flow rate of 30 μl/min. For Clone 80, the association time was increased to 500 seconds and 1000 seconds dissociation time. The human PD-L1-Fc immobilized surface was regenerated with 3-3.5 mM NaOH solution (Cytiva) for 20-30 seconds at 20 μl/min flow rate. The kinetic data was blank subtracted and fit to a 1:1 Langmuir binding model (BIAcore evaluation software; Cytiva) to calculate an apparent KD value.
Work on B1 yielded a Kd of 45.6 nM, a koff of 0.0909 s⁻¹ and a kon of 1.99e+06 M⁻¹ s⁻¹.
B2 gave a Kd of 44 nM, a koff of 0.0457 s⁻¹ and a kon of 1.04e+06 M⁻¹ s⁻¹.

The molecules below were run against T1, human PD-L1-Fc (R&D Systems) (assay: PD-1/PD-L1 competitive ELISA, average n = 2; competitor PD-1-Fc coated).
Description: (§1) The competitive inhibition of AFFIMER® multimers was evaluated by enzyme linked immunosorbent assay (ELISA). Human PD-1-Fc (R&D Systems) was coated at 0.5 μg/ml on the plate. Plates were washed two times with […] of washing buffer (PBS, Tween 20 0.1%) with a plate washer and saturated with Casein 5% (Sigma) in PBS for 90 minutes at room temperature (25±1° C.). Plates were subsequently washed. AFFIMER® polypeptides and controls (human PD-1-Fc; R&D Systems or blank) were then diluted in duplicate, and preincubated with huPD-L1-Fc (R&D Systems) at a predefined concentration equivalent to the EC₈₀ for 30 minutes then loaded on the plate for 90 minutes at room temperature (25±1° C.). Plates were washed 3 times. Biotinylated polyclonal antibody anti-human PD-L1 (R&D Systems) was then diluted in dilution buffer and incubated 90 minutes at room temperature (25±1° C.). Plates were washed 3 times and Streptavidin HRP was incubated for 30 minutes at room temperature (25±1° C.). Plates were washed and the substrate (TMB; Pierce Thermo-Scientific) added to the plate for 10 minutes. The reaction was stopped using an acidic solution and plates were read at absorbance 450-630 nm. The IC₅₀ was then calculated using the interpolated non-linear four-parameter standard curve.
Analysis identified three mutants which no longer bind target antigen, three mutants which have reduced binding and twelve (12) mutants which retaining binding to target antigen. […] The mutant AFFIMER® clones which retained binding to PD-L1 were assessed in both a competition ELISA (as described in Example 4) and the PD1:PD-L1 blockade cell-based Promega assay (as described in Example 5).
Molecule B3 has an IC50 of 4.83 nM.

The molecules below were run against T1, human PD-L1-Fc (R&D Systems) (assay: soluble Affimer ELISA).
B4: binds.
B5: binds.
B6: binds.
B7: binds.
B8: binds.
B9: binds.
B10: binds.

These molecules were tested against T2, human PD-L1 on CHO cells (human, UniProt Q9NZQ7 19-290) (assay: cell-based or functional assay).
T2 sequence (Q9NZQ7 19-290): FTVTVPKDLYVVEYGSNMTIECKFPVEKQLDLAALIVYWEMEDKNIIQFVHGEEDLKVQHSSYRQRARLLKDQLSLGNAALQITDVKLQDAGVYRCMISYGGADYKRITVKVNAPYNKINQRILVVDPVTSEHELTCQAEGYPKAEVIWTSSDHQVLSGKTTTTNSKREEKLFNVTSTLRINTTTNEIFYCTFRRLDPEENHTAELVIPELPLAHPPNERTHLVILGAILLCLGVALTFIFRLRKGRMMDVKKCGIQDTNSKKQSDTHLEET
In the case of B3, the “EC50 (read off the curve); Promega PD-1/PD-L1 blockade bioassay, fold of induction” value is reported as roughly 200 nM.

These molecules were tested against T2, human PD-L1 on CHO cells (assay: flow cytometry histogram, live-gated hu-PD-L1 CHO cells, Affimer at 100 nM).
Description: Human PD-L1 CHO cells having a cell surface over expressing human PD-L1 or CHO-negative cells were plated at 50,000 cells per well in a round bottom tissue culture plate. AFFIMER® clones were titrated from 700 nM or monoclonal antibody (mAb) controls titrated from 10 nM in cell staining buffer (PBS, 1% BSA+2 mM EDTA+0.05% Sodium Azide buffer) and incubated for 1 hour. After two washes with staining buffer, AFFIMER® polypeptides were detected with an anti-cystatin antibody. After a further two washes, AF488-conjugated anti-goat antibody (to detect AFFIMER® polypeptides) or AF488-conjugated anti human IgG1 antibody (to detect mAb controls) were incubated for 40 minutes followed by an additional wash step. Viability dye (Zombie Aqua reagent, Biolegend) was added and the plates were incubated for 10 min. After a final wash, cells were fixed and the data acquired using a multiparameter flow cytometer (Guava 12HT, Luminex Corp).
For B11, the “% (cells in the positive gate)” value was 98.1% and the MFI was 1240 MFI.
B12 was tested, and the “% (cells in the positive gate)” value was 98% and the MFI was 1010 MFI.

The molecules below were run against T1, human PD-L1-Fc (R&D Systems) (assay: SPR (Biacore 8K), binding to PD-L1-Fc).
For B13, the Kd was 5.08 nM.
In the case of B14, the Kd is reported as 2.61 nM.
Molecule B3 has a Kd of 2 nM.
B15: no binding.
B16 gave a Kd of 0.61 nM.
For B17, the Kd was 8.91 nM.
With B18 the Kd was 38 nM.
Molecule B19 has a Kd of 0.93 nM.
Work on B20 yielded a Kd of 1.69 nM.
B21 gave a Kd of 1.48 nM.
B22: no binding.
B23: no binding.
Molecule B24 has a Kd of 2.53 nM.

What follows are molecules tested against papain (UniProt P00784) (assay: cell-based or functional assay).
Sequence of papain (P00784 134-345 limits assumed): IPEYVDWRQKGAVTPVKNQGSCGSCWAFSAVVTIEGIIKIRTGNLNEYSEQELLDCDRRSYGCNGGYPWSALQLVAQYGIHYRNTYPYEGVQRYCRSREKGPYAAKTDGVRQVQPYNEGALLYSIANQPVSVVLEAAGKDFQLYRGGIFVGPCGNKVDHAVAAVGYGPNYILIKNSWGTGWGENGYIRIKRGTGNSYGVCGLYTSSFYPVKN
Stefin A (from UniProt P01040 1-98) showed an IC50, inhibition of papain cleavage of Z-Phe-Arg-AMC of 3.8 nM.

Target: T2, human PD-L1 on CHO cells
Experiment: cell-based or functional assay
Remark: another data set of the same source
In the case of B12, the “IC50, PD-1/PD-L1 blockade Bioassay (Promega)” value is reported as 30 nM.

What follows are molecules tested against T1, human PD-L1-Fc (R&D Systems) (assay: PD-L1/PD-1 competition ELISA, % inhibition: Affimer pre-incubated with huPD-L1-Fc, then loaded on plate-coated human PD-1-Fc (blocked ligand). Column head on the sheet reads 'EC50nM'; the text calls these values IC50).
Description: as §1
With B25 the EC50 was 69.9 nM.
For B1, the EC50 was 16.9 nM.
Molecule B11 has an EC50 of 8.55 nM.
Work on B26 yielded an EC50 of 197 nM.
B12 showed an EC50 of 0.205 nM.
